Test results: patent US20160319361, “OLIGONUCLEOTIDE PROBES AND USES THEREOF” (CARIS LIFE SCIENCES SWITZERLAND HOLDINGS GMBH, published 2016)

Target: T1, EpCAM (UniProt P16422 P16422:24-265)
T1 sequence: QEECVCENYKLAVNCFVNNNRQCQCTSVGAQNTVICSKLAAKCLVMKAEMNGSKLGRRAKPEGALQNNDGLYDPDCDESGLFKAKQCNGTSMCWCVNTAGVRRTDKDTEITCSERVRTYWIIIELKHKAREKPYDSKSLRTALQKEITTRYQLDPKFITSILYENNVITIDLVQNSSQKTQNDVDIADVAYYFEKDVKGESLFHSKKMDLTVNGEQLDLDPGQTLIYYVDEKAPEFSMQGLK
Test: SPR; immobilized biotinylated aptamer, EpCAM analyte; HBS-EP+ buffer
Conditions: label: biotin via tail
Method: FIG. 5 illustrates results from a binding assay showing the binding affinity of an exemplary aptamer (Aptamer ID BTX176881 (SEQ ID NO: 3)) to the target EpCAM protein at various target concentrations. The aptamer to be tested is fixed to a substrate using a biotin tail and is incubated with various concentrations of target (125, 250 and 500 nM). The test is performed on a surface plasmon resonance machine (SPR). The SPR machine detects association and disassociation of the aptamer and the target. Target is applied until the association and disassociation events are equal, resulting in a plateau of the curve. The equations describing the curve at each concentration can then be used to calculate the KD of the aptamer (see Table 5).
The Biacore 200 control software is programmed with the following conditions: Solution: HBS-EP+ Buffer; Number of cycles: 3; Contact time: 120s; Flow rate: 30 μl/min; Dissociation time: 300s; Solution: Glycine-HCl pH 2.5; Contact time: 120s; Flow rate: 20 μl/min; Stabilization period: 0s. The binding affinities of these aptamers are then measured using the SPR assay above, or an alternate in vitro assay assessing the aptamer for a desired function.

## CCCGATTTTGGTACCGCGGGGATCCGCGTCTG (ssDNA) [BTX176881]
  Kd: 8.4 nM
